± gives the uncertainty stated by the source.
B1: Cyclin-F, residues 28 to 80; numbered along this chain, P41002 (parent)
chain: RNLTILSLPEDVLFHILKWLSVEDILAVRAVHSQLKDLVDNHASVWACASFQE

Variants of: B1
Assay: abundance fitness (aPCA) (normalised: wild type 0, dead -1); higher = more abundant; growth selection in yeast, the domain comes from the species named
Details: Homo sapiens

RNLTILSLPEDVLFHILKWWSVEDILAVRAVHSQLKDLVDNHASVWACASFQE [L20W] and RNLTILSLPEDVLFHILKWGSVEDILAVRAVHSQLKDLVDNHASVWACASFQE [L20G] are within error of each other in abundance fitness: -0.747 ± 0.19 for the first, -0.605 ± 0.15 for the second.

RNLTILSLPEDVLFHILKWKSVEDILAVRAVHSQLKDLVDNHASVWACASFQE [L20K] and RNLTILSLPEDVLFHILKWRSVEDILAVRAVHSQLKDLVDNHASVWACASFQE [L20R] are within error of each other in abundance fitness: -0.838 ± 0.41 for the first, -0.853 ± 0.14 for the second.

First: RNLTILSLPEDVLFHILKWCSVEDILAVRAVHSQLKDLVDNHASVWACASFQE [L20C]
Second: RNLTILSLPEDVLFHILKWTSVEDILAVRAVHSQLKDLVDNHASVWACASFQE [L20T]
The abundance fitness of the first is higher: -0.42 ± 0.16 for the first, -0.923 ± 0.21 for the second.

RNLTILSLPEDVLFHILKWISVEDILAVRAVHSQLKDLVDNHASVWACASFQE [L20I] and RNLTILSLPEDVLFHILKWHSVEDILAVRAVHSQLKDLVDNHASVWACASFQE [L20H] are within error of each other in abundance fitness: -0.673 ± 0.23 for the first, -0.812 ± 0.48 for the second.

RNLTILSLPEDVLFHILKWQSVEDILAVRAVHSQLKDLVDNHASVWACASFQE [L20Q] and RNLTILSLPEDVLFHILKWYSVEDILAVRAVHSQLKDLVDNHASVWACASFQE [L20Y] are within error of each other in abundance fitness: -0.893 ± 0.26 for the first, -0.75 ± 0.29 for the second.

RNLTILSLPEDVLFHILKWPSVEDILAVRAVHSQLKDLVDNHASVWACASFQE [L20P] and RNLTILSLPEDVLFHILKWESVEDILAVRAVHSQLKDLVDNHASVWACASFQE [L20E] are within error of each other in abundance fitness: -0.893 ± 0.27 for the first, -0.982 ± 0.23 for the second.

RNLTILSLPEDVLFHILKWVSVEDILAVRAVHSQLKDLVDNHASVWACASFQE [L20V] and RNLTILSLPEDVLFHILKWNSVEDILAVRAVHSQLKDLVDNHASVWACASFQE [L20N] are within error of each other in abundance fitness: -0.484 ± 0.11 for the first, -0.759 ± 0.23 for the second.

RNLTILSLPEDVLFHILKWASVEDILAVRAVHSQLKDLVDNHASVWACASFQE [L20A] and RNLTILSLPEDVLFHILKWFSVEDILAVRAVHSQLKDLVDNHASVWACASFQE [L20F] are within error of each other in abundance fitness: -0.667 ± 0.16 for the first, -1.01 ± 0.24 for the second.

RNLTILSLPEDVLFHILKWSSVEDILAVRAVHSQLKDLVDNHASVWACASFQE [L20S] and RNLTILSLPEDVLFHILKWDSVEDILAVRAVHSQLKDLVDNHASVWACASFQE [L20D] are within error of each other in abundance fitness: -0.705 ± 0.15 for the first, -0.675 ± 0.24 for the second.

Compared with RNLTILSLPEDVLFHITKWLSVEDILAVRAVHSQLKDLVDNHASVWACASFQE [L17T], RNLTILSLPEDVLFHIIKWLSVEDILAVRAVHSQLKDLVDNHASVWACASFQE [L17I] is higher in abundance fitness: -0.63 ± 0.18 for the first, 0.148 ± 0.26 for the second.

Compared with RNLTILSLPEDVLFHIVKWLSVEDILAVRAVHSQLKDLVDNHASVWACASFQE [L17V], RNLTILSLPEDVLFHIQKWLSVEDILAVRAVHSQLKDLVDNHASVWACASFQE [L17Q] is lower in abundance fitness: -0.169 ± 0.093 for the first, -0.782 ± 0.21 for the second.

RNLTILSLPEDVLFHIRKWLSVEDILAVRAVHSQLKDLVDNHASVWACASFQE [L17R] and RNLTILSLPEDVLFHIHKWLSVEDILAVRAVHSQLKDLVDNHASVWACASFQE [L17H] are within error of each other in abundance fitness: -0.774 ± 0.12 for the first, -0.678 ± 0.46 for the second.

RNLTILSLPEDVLFHINKWLSVEDILAVRAVHSQLKDLVDNHASVWACASFQE [L17N] and RNLTILSLPEDVLFHISKWLSVEDILAVRAVHSQLKDLVDNHASVWACASFQE [L17S] are within error of each other in abundance fitness: -0.926 ± 0.4 for the first, -0.896 ± 0.14 for the second.

First: RNLTILSLPEDVLFHILKWLPVEDILAVRAVHSQLKDLVDNHASVWACASFQE [S21P]
Second: RNLTILSLPEDVLFHILKWLQVEDILAVRAVHSQLKDLVDNHASVWACASFQE [S21Q]
The abundance fitness of the first is higher: -0.047 ± 0.12 for the first, -0.473 ± 0.17 for the second.

RNLTILSLPEDVLFHILKWLGVEDILAVRAVHSQLKDLVDNHASVWACASFQE [S21G] and RNLTILSLPEDVLFHILKWLIVEDILAVRAVHSQLKDLVDNHASVWACASFQE [S21I] are within error of each other in abundance fitness: -0.226 ± 0.1 for the first, -0.405 ± 0.23 for the second.

Compared with RNLTILSLPEDVLFHILKWLVVEDILAVRAVHSQLKDLVDNHASVWACASFQE [S21V], RNLTILSLPEDVLFHILKWLRVEDILAVRAVHSQLKDLVDNHASVWACASFQE [S21R] is higher in abundance fitness: -0.621 ± 0.12 for the first, -0.157 ± 0.09 for the second.

Going from RNLTILSLPEDVLFHILKWLLVEDILAVRAVHSQLKDLVDNHASVWACASFQE [S21L] to RNLTILSLPEDVLFHILKWLKVEDILAVRAVHSQLKDLVDNHASVWACASFQE [S21K], the abundance fitness rises from -0.855 ± 0.12 to -0.272 ± 0.17.

Compared with RNLTILSLPEDVLFHILKWLMVEDILAVRAVHSQLKDLVDNHASVWACASFQE [S21M], RNLTILSLPEDVLFHILKWLEVEDILAVRAVHSQLKDLVDNHASVWACASFQE [S21E] is higher in abundance fitness: -0.815 ± 0.23 for the first, -0.092 ± 0.14 for the second.

Compared with RNLTILSLPEDVLFHILKWLFVEDILAVRAVHSQLKDLVDNHASVWACASFQE [S21F], RNLTILSLPEDVLFHILKWLNVEDILAVRAVHSQLKDLVDNHASVWACASFQE [S21N] is higher in abundance fitness: -0.731 ± 0.15 for the first, -0.148 ± 0.25 for the second.

Going from RNLTILSLPEDVLFHILKWLWVEDILAVRAVHSQLKDLVDNHASVWACASFQE [S21W] to RNLTILSLPEDVLFHILKWLDVEDILAVRAVHSQLKDLVDNHASVWACASFQE [S21D], the abundance fitness rises from -0.824 ± 0.16 to 0.135 ± 0.13.

RNLTILSLPEDVLFHILKWLYVEDILAVRAVHSQLKDLVDNHASVWACASFQE [S21Y] and RNLTILSLPEDVLFHILKWLHVEDILAVRAVHSQLKDLVDNHASVWACASFQE [S21H] are within error of each other in abundance fitness: -0.566 ± 0.19 for the first, -0.334 ± 0.19 for the second.

RNLTILSLPEDVLFHILKWLTVEDILAVRAVHSQLKDLVDNHASVWACASFQE [S21T] and RNLTILSLPEDVLFHILKWLAVEDILAVRAVHSQLKDLVDNHASVWACASFQE [S21A] are within error of each other in abundance fitness: -0.126 ± 0.1 for the first, -0.113 ± 0.1 for the second.

RNLTILSLPEDVLFHILKWLCVEDILAVRAVHSQLKDLVDNHASVWACASFQE [S21C] and RNLTILSLPEDVLFHILKRLSVEDILAVRAVHSQLKDLVDNHASVWACASFQE [W19R] are within error of each other in abundance fitness: -0.311 ± 0.18 for the first, -0.154 ± 0.097 for the second.

RNLTILSLPEDVLFHILKLLSVEDILAVRAVHSQLKDLVDNHASVWACASFQE [W19L] and RNLTILSLPEDVLFHILKHLSVEDILAVRAVHSQLKDLVDNHASVWACASFQE [W19H] are within error of each other in abundance fitness: 0.293 ± 0.084 for the first, 0.257 ± 0.18 for the second.

RNLTILSLPEDVLFHILKTLSVEDILAVRAVHSQLKDLVDNHASVWACASFQE [W19T] showed an abundance fitness of -0.269 ± 0.14.

— the Human Domainome abundance scans (Beltran et al. 2025)
